These results are taken from the supplement of paper PMC12042874.

± gives the uncertainty stated by the source.

The nature of the data set: amyloid nucleation score (Sup35N fusion, yeast selection) (log enrichment); library NNK2; higher = more nucleation; inactive = no reads after selection. The method in brief:
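Libraries of peptides of 20 random codons fused to Sup35N were expressed in psi-negative yeast and induced 24 hours with 100 μM copper sulfate. Selection was 7 days at 30°C on medium lacking adenine and uracil, and plasmid inserts were Illumina-sequenced before and after selection. Nucleation score is the DiMSum log enrichment of output over input reads, centred on the mode score of non-aggregating sequences, and sequences with under 100 input reads were left out.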

The substance NQLRVLMTFFWPGMLNTPAV showed an amyloid nucleation score of -0.089 ± 1.1.
Next, FDSLAKLFSRIVLLLLLNDR: -0.032 ± 1.1; DLKVDQSVWRSLDMNALVAN: 1.27 ± 0.44; RPWHDLLNLHLYGRFMYTIG: 0.415 ± 0.37.
Consider GQIAKVKPVRWKFKTTTWGS, for which the amyloid nucleation score stood at 1.26 ± 0.41.
Substance ANSNIHLVPMTLSTDEVPLP yielded an amyloid nucleation score of 0.413 ± 0.43.
The same measure for PSGPSHIYGWYDSFHNCSYN: -0.369 ± 0.49.
The same measure for NGFVSSSRSFICFRWKWRYY: 0.255 ± 1.1.
Next, TRGKRVPPDVLSSPKRIANV: 1.12 ± 0.46; TTRSIMQCDLGTNPFDNTCS: 0.203 ± 0.41.
On to YDCLCFFPWCRLFNSRKSMA, for which the amyloid nucleation score was 0.34 ± 0.14.
Next, YLFFYNMSRDRSDTWCEHAV: 3.5 ± 0.094; FFLWVGTYSVVPGLCVYMS: 3.78 ± 0.11; NLFLFVRGLGRGWSWWWEVR: 0.415 ± 0.8.
The same measure for RVYEVFGQKATGQMARRSVG: 1.78 ± 0.34; for YMPPSCMSP: “inactive”.
The same measure for VVRQTVSDCVQASTRSQLLK: 0.522 ± 0.35; for IPIWFERIALSDFKLVFSHN: “inactive”; for RFMVSRYFISGPIIVSC: 0.284 ± 1.1.
As for YTVWGKY, the amyloid nucleation score worked out at 0.288 ± 0.53.
For the substance GIKDI, the amyloid nucleation score is -1.05 ± 0.79.
Next, IVLTLDLSRRVGMRNCVLLG: -0.063 ± 0.54; RMWCQVKS: -0.236 ± 0.53.
CWFPWSSYLRNMFELPKTWL registered an amyloid nucleation score of 0.529 ± 0.55.
Next, SCNNLGDLWLSIILVKSET: 0.044 ± 1.1; ITNAYGLIPTNFLCYAFCVI: 7.958 ± 0.038.
Next, LANYYTDSVRPSCGY: -0.022 ± 0.55; KNINWILNAGSMLVSFYRPW: 7.328 ± 0.065.
Next, CWQVYLIFMGRMVCLTVML: 1.15 ± 0.66; QTNGGEGQ: 0.705 ± 0.24.
Take NSSVW: the amyloid nucleation score was -1.01 ± 0.48.
Next, CVKVNWVSV: -0.81 ± 0.76.
For RKFFSIVRFCA, the amyloid nucleation score entry was “inactive”.
The same measure for MKGFELSLLVMRHSLELYRI: 0.463 ± 0.65.
As for SVFIGVVPNESQCYV, the amyloid nucleation score is 0.069 ± 0.39.
In turn, KESKLYLFLCFL came in with an amyloid nucleation score of 7.832 ± 0.048.
The same measure for LYRFSNST: -0.968 ± 0.29.
The same measure for AVPAVRVNGLHIRNCGYTGP: 1.22 ± 0.2; for LGWASYVYGCGRRGGSCRGW: 1.87 ± 0.12; for LIPIRALRHYFRFIVCV: -0.142 ± 0.61.
The same measure for LFLHVSGNAYGNNCRLSGPL: 0.369 ± 0.22; for AKLEVQA: -0.978 ± 0.36; for TMSVDCWLCNLRMEMFLELY: -1.54 ± 0.75.
SAVSMMLYWGSLNRVDYCWS: the amyloid nucleation score stood at 0.877 ± 0.32.
The same measure for GGCCSLPLACNKKGCCYWVA: 1.84 ± 0.47.
The same measure for FFTANPV: 0.335 ± 0.64.
Regarding TVIAEPIRDEQCTIYHRCGV, the amyloid nucleation score came to 0.554 ± 0.38.
The same measure for YCFEADVARMIQVFLVFCAS: 0.259 ± 0.25; for RNSDGPLCSDGVVHFIRMLV: 0.001 ± 0.65; for LYGIVITTLSSYCGGFLNSR: “inactive”.
Substance YRSSHYYQQSIIVFVIMHRC yielded an amyloid nucleation score of 2.11 ± 0.3.
In turn, RIRHCGQFYSMHGKRRIATH displayed an amyloid nucleation score of 1.17 ± 0.34.
On to FFLDYRENISAMLPTTR, for which the amyloid nucleation score was -0.833 ± 1.1.
The same measure for HNYGNPWE: 3 ± 0.12.
The substance LRRTTGYSKLTCLTHG gave an amyloid nucleation score of 4.34 ± 0.048.
IIMNVVHEDSLL: the amyloid nucleation score was 0.019 ± 0.5.
Next, SRKFFPVFN: “inactive”.
The same measure for EVWRWIFNHGLPRHAGHIVA: 0.312 ± 0.43; for MVLIENSCKMSSYQE: -0.405 ± 0.35.
Next, WGTDISYMGRSGCTLSGCIY: -1.13 ± 0.55; SHSSMVLRLVRVWCVCRG: 0.342 ± 0.4.
For WSVYKVLYCLTGFRFQRSRL, the amyloid nucleation score result was “inactive”.
Next, VNVSGSGSVPY: 0.741 ± 0.27.
On to QSRDKYLKFRPSLWATEMTW, for which the amyloid nucleation score was -0.127 ± 0.31.
On to GGVHGGFRSYVVAIWYGMLN, for which the amyloid nucleation score was -1.37 ± 1.1.
Next, SILYVSRLTFR: 0.218 ± 1.1; CNLSFVGS: 0.287 ± 0.25.
Next, FLSRWSFPHGEFLLIRTLAG: -0.574 ± 0.3; IILIYVCRRPCLISQDNAFF: “inactive”.
Next, SDIFRK: -1.27 ± 0.62.
Regarding SYDFSSINRDKTSSSRSLPR, the amyloid nucleation score is -0.474 ± 1.
The same measure for LIFRVFFALTVGIRRIMHML: 5.83 ± 0.059; for LIGYI: 1.96 ± 0.11.
For the substance QFDWDRVYMFSTLPFCIWWV, the amyloid nucleation score was -0.783 ± 0.35.
ELKVMGYMCPL returned an amyloid nucleation score of 0.801 ± 0.82.
Next, SHGWGTAAVWNIAVCRRSLG: 0.129 ± 0.39; YVDGFYNGERWRLVLHVWDL: -0.598 ± 0.39.
Next, KDAPEECNYVQFKA: 0.273 ± 0.61; VKSTSFPTWMISMIGQRTAH: -0.711 ± 1.1.
The same measure for FMSLTSMLCNLRTNSCMCAR: -0.014 ± 0.21.
In the case of YKCDVICCFGIWVLMFEN, the amyloid nucleation score stood at 5.25 ± 0.074.
The same measure for FSITCADFICYSLVGGERTP: 9.559 ± 0.066; for EDDVSYNSFSGQASLWKFPK: -0.818 ± 0.56; for NMYFEVALFT: -1.22 ± 0.64.
Next, KGLAREVRCSQYTTVIFVDR: 5.273 ± 0.043; GLIVKLMGIFRNRSETSESQ: 4.47 ± 0.083; TMLCYYINFRLIVYRSWYKQ: -0.788 ± 0.34.
Next, CYVRI: -0.603 ± 1.1.
As for PSLAKRGVSVCLAKANSRTI, the amyloid nucleation score was -0.388 ± 1.
The same measure for NSSPTSFLLIMSLNCCICVN: 8.228 ± 0.024; for MWSVLNHLRSDSDFSNA: 1.13 ± 0.61; for FNIVQHVASCGWLTYTWSAA: -0.018 ± 1.1.
Next, DYLVSMTVNSASLFRYIERR: 5.209 ± 0.029.
As to LPVGPLVRDNTWHRRVQRWL, the amyloid nucleation score was 1.11 ± 0.29.
In turn, FCWSCWLFQDCSYVVIGREV had an amyloid nucleation score of 8.556 ± 0.048.
The same measure for VRKRNVFFSSSFSSQRSGNC: -0.327 ± 0.63.
Next, ESFAFELTVLHIS: 1.11 ± 0.38.
Next, LFMACLIGIFFHVETTRCRW: 2.5 ± 0.13.
Turning to NGIRQDNMGGVHVPTGSTII, the amyloid nucleation score is -0.277 ± 0.39.
Next, AINLSDKAARVPLFK: -0.093 ± 0.34.
RLFLSSNST yielded an amyloid nucleation score of -1.49 ± 0.54.
Next, ALMLWKCKARTCISPQRRGV: 0.448 ± 0.4.
VTNSSMQMSSWADPSVKSGM had an amyloid nucleation score of 0.032 ± 0.32.
